Assay results published in the Immune Epitope Database (IEDB).

Each sequence was assayed against HLA-A*68:02 (assay: IEDB peptide-MHC binding, cellular MHC/competitive/fluorescence; ≥ and ≤ were set here for values at or beyond the usual limits of such assays). Settings: source organism: Hepacivirus hominis.

| Sequence | IC50 |
| --- | --- |
| LLLGLLLLCV | 57.9 µM |

Same assay, conditions: source organism: Vaccinia virus WR

| Sequence | IC50 |
| --- | --- |
| DTDIVNNFIT | 7.68 µM |
| FANVISKIYT | 5.49 µM |
| FIDRGSIKI | 48 µM |
| FVVNGHTCM | 7.46 µM |
| GVLHTKFWI | 43.9 µM |
| GVLPEETNI | 12 µM |
| IAGLKIEEI | 27.5 µM |
| IIDLLLPST | ≥ 70 µM |
| ITLILSNKL | 8.73 µM |
| KADAVVADL | 23.4 µM |
| KTEHCDDFM | ≥ 70 µM |
| LALWDSNFFT | ≥ 70 µM |
| VILPDKIDGL | ≥ 70 µM |

These sequences were tested against HLA-A*02:03 in the same assay as above. Settings: source organism: Hepacivirus hominis.

| Sequence | IC50 |
| --- | --- |
| LLLGLLLLCV | 10.3 µM |

Same assay, conditions: source organism: Influenza A virus

| Sequence | IC50 |
| --- | --- |
| NTVSSFQV | 60.1 µM |
| NVLSIAPI | 17.4 µM |

Same assay, conditions: source organism: Mammarenavirus choriomeningitidis

| Sequence | IC50 |
| --- | --- |
| FSLGAAVKA | 13.4 µM |

Same assay, conditions: source organism: Vaccinia virus WR

| Sequence | IC50 |
| --- | --- |
| DTDIVNNFIT | 5.59 µM |
| ETQSGALEVL | 14.5 µM |
| EVRYIDITNI | 5.81 µM |
| FANVISKIYT | 5.31 µM |
| FIDRGSIKI | 12.2 µM |
| FTHTTAFFNT | 10.2 µM |
| FVVNGHTCM | 5.9 µM |
| GVLHTKFWI | 12.3 µM |
| GVLPEETNI | 20.4 µM |
| IAGLKIEEI | 6.09 µM |
| IIDLLLPST | 10.3 µM |
| ITLILSNKL | 17.1 µM |
| IVPDIKLDA | 15.7 µM |
| IVQLPKRGV | 8.75 µM |
| KADAVVADL | 12.4 µM |
| KTEHCDDFM | 18.1 µM |
| LALWDSNFFT | 19.9 µM |
| LVIRNEVNDT | 15.2 µM |
| QTVDFTDCRT | 54.3 µM |
| SAGFTATICL | 20.1 µM |
| STTGEWPLI | 44.5 µM |
| TTENAAYQV | 51.3 µM |
| TVDFTDCRT | 27 µM |
| VILPDKIDGL | 10.8 µM |
| VVIVENDNV | 38 µM |

The sequences below were run against HLA-A*02:01 in the same assay as above. Settings: source organism: Influenza A virus.

| Sequence | IC50 |
| --- | --- |
| NTVSSFQV | 52.7 µM |
| NVLSIAPI | 8.52 µM |

Same assay, conditions: source organism: Mammarenavirus choriomeningitidis

| Sequence | IC50 |
| --- | --- |
| FSLGAAVKA | 11 µM |

Same assay, conditions: source organism: Vaccinia virus WR

| Sequence | IC50 |
| --- | --- |
| DTDIVNNFIT | 7.86 µM |
| ETQSGALEVL | 5.14 µM |
| EVRYIDITNI | 8.61 µM |
| FANVISKIYT | 15.7 µM |
| FIDRGSIKI | 6.95 µM |
| FTHTTAFFNT | 9.94 µM |
| FVVNGHTCM | 22.3 µM |
| GVLPEETNI | 17.3 µM |
| IAGLKIEEI | 23.2 µM |
| IIDLLLPST | 5.65 µM |
| ITLILSNKL | 6.79 µM |
| IVPDIKLDA | 42.2 µM |
| IVQLPKRGV | 15.3 µM |
| KTEHCDDFM | 16.1 µM |
| LVIRNEVNDT | 12.6 µM |
| QTVDFTDCRT | 40.1 µM |
| SAGFTATICL | 10.4 µM |
| STTGEWPLI | 8.57 µM |
| TTENAAYQV | 29.6 µM |
| TVDFTDCRT | 33.6 µM |
| VVIVENDNV | 34.4 µM |

Each sequence was assayed against HLA-A*02:02 in the same assay as above. Settings: source organism: Hepacivirus hominis.

| Sequence | IC50 |
| --- | --- |
| LLLGLLLLCV | 16.9 µM |

Same assay, conditions: source organism: Influenza A virus

| Sequence | IC50 |
| --- | --- |
| NTVSSFQV | ≥ 70 µM |
| NVLSIAPI | 39.7 µM |

Same assay, conditions: source organism: Mammarenavirus choriomeningitidis

| Sequence | IC50 |
| --- | --- |
| FSLGAAVKA | 6.47 µM |

Same assay, conditions: source organism: Vaccinia virus WR

| Sequence | IC50 |
| --- | --- |
| DTDIVNNFIT | 8.59 µM |
